According to US20060217308A1, “Compositions for the treatment of tumor pathologies, comprising internalin B (ln1B) of Listeria monocytogene protein or a fragment thereof” (priority 2005, published 2006):

What was measured:
Met [1] = assay: In1B-induced ubiquitination of Met (anti-Met immunoprecipitation, anti-ubiquitin blot) in HeLa cells; type: cell-based, human
Method: (A) Listeria monocytogenes EGD (BUG600) (MOI 25) or purified In1B (5 nM) were added (+) for two minutes to HeLa cells. Samples were immunoprecipitated against Met and blotted against ubiquitin using P4D1 monoclonal antibody. (B) In1B was added to HeLa cells for two minutes and samples were re-immunoprecipitated against Met. Samples were blotted against ubiquitin (Ub) or Met. (C) Increasing amounts of In1B were added to HeLa cells (1 to 6 corresponding to 0, 0.22, 0.44, 0.88, 1.75, […], 5 nM respectively) for two minutes. Extracts were immunoprecipitated against Met and blotted against Met or ubiquitin (Ub). (D) As C, but 1 to 6 correspond to 0, 3.5, 10, 20, 40, 80 nM In1B, respectively. (E) 5 nm of purified In1B was added to HeLa cells for the indicated times. Cell extracts were immunoprecipitated (IP) against Met and blotted (WB) against Met or ubiquitin (Ub). At the left of all panels the molecular weight markers are indicated in kDa. In C and D, 8% acrylamide gels were used, while 10% acrylamide gels were used in A, B, and E.
Cells, bacteria and growth conditions. The human cell line used was HeLa (ATCC number CCL-2) grown as recommended by ATCC. Typically, cells were serum starved for three hours before the addition of In1B. The bacterial strains used were Listeria monocytogenes BUG600 and BUG1461. They were grown in BHI medium, which in the case […] contained 5 μg/ml of erythromycin.
Assays. Immunoprecipitation, Re-immunoprecipitation, and immunoblots were performed as described before (31). In1B purification was performed as described (54).
It has been previously described that the ubiquitin ligase Cbl is recruited to the Met complex during the first minute after cell treatment with soluble In1B (31). Whether Listeria infection promotes ubiquitination of Met was studied. Epithelial HeLa cells were infected with Listeria monocytogenes (at a m.o.i. 25) or treated with purified In1B (5 nM) (FIG. 1A) for two minutes. Cellular extracts were immunoprecipitated using an antibody that recognizes Met and ubiquitination of immunoprecipitated proteins was tested with an anti-ubiquitin antibody. A clear increase in the amount of ubiquitinated proteins associated with Met was detected after infection with Listeria.
To assess whether the signal observed after In1B treatment corresponded to Met ubiquitination, a re-immunoprecipitation assay was performed. Anti-Met immunoprecipitates from cells samples treated (or not) with In1B were denatured (boiled in presence of 1% SDS), to dissociate Met complexes, and re-immunoprecipitated using anti-Met antibodies. The resulting samples were immunoblotted against ubiquitin (FIG. 1B left panel) and Met (FIG. 1B right panel). Ubiquitin was only detectable in the lane corresponding to In1B treated samples, whereas Met was present in both lanes corresponding to In1B-treated or non-treated samples.
In order to determine the minimal amount of In1B necessary to trigger Met ubiquitination, HeLa cells were treated with increasing amount of In1B for two minutes. Cell extracts were then immunoprecipitated using the anti-Met antibody and blotted with anti ubiquitin or anti Met antibodies (FIGS. 1C and 1D). 1.75 nM of In1B was sufficient to induce ubiquitination of Met. […] Note that ubiquitinated Met migrated slower and than non-ubiquitinated in 8% acrylamide SDS-PAGE gels (FIGS. 1C and 1D), in agreement with an increase in apparent molecular weight of ubiquitinated proteins. Again, Met detection was always weaker after ubiquitination, supporting the previous observation that ubiquitination of Met was leading to Met degradation.
Next, the kinetics of In1B-dependent ubiquitination of Met were tested. In1B (5 nM) was added during increasing time periods to HeLa cells and cell extracts were immunoprecipitated using anti-Met antibodies (FIG. 1E). In1B-induced ubiquitination was maximal two minutes after treatment and declined thereafter. […]

Met [2] = assay: Kinetics of phosphorylation of Met after In1B (IP Met, blot phospho-tyrosine); type: cell-based, human; details: HeLa cells, In1B 5 nM (FIG. 8)
Method: FIG. 8 depicts the kinetics of phosphorylation and ubiquitination of Met. 5 nm of purified In1B was added to HeLa cells for the indicated times. Cell extracts were immunoprecipitated (IP) against Met and blotted (WB) against phospho-tyrosine (P-Tyr), Met or ubiquitin (Ub).
Ligand-induced ubiquitination of RTKs is preceded by phosphorylation of the receptor, which is then recognized and ubiquitinated by the ubiquitin ligase Cbl (33). As previously shown (27), In1B rapidly stimulates Met phosphorylation and the kinetics of ubiquitination of Met follows that of phosphorylation with a maximum at two minutes after stimulation (FIG. 8).

Met, sequence (P08581 25-1390): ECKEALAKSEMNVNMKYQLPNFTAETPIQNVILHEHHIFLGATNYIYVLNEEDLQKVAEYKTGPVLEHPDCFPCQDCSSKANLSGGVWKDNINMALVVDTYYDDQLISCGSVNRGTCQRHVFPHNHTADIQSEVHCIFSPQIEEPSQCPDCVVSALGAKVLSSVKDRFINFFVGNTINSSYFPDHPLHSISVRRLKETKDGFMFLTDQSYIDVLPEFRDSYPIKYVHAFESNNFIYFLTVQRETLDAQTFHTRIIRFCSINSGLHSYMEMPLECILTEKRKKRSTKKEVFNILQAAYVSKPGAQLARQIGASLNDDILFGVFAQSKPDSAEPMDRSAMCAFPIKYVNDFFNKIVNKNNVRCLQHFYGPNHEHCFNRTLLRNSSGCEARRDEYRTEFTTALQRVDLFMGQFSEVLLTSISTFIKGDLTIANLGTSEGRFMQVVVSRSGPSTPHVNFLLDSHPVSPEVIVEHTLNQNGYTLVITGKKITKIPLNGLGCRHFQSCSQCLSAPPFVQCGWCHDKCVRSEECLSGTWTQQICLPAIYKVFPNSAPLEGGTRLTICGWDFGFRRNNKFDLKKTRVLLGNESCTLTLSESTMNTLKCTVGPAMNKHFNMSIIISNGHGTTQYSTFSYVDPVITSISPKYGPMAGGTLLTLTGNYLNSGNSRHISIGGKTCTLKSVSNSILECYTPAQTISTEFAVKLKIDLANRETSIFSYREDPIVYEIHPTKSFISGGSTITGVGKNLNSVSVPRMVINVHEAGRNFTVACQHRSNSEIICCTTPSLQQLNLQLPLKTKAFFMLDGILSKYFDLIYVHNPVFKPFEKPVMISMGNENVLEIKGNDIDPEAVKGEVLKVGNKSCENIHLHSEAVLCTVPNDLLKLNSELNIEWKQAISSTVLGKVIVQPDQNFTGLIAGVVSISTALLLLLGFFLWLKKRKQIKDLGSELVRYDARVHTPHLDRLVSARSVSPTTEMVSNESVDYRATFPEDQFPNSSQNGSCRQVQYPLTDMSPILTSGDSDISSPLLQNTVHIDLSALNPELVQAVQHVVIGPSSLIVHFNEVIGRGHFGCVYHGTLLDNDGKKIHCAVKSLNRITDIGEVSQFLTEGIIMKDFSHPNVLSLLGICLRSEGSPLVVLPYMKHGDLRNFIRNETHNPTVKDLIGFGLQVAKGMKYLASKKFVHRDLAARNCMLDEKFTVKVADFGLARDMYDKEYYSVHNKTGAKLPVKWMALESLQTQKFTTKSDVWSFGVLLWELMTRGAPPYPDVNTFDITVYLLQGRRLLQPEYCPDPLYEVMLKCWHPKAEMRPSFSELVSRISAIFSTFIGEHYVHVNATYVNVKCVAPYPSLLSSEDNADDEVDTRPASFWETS

B1: In1B: Listeria monocytogenes surface protein of the internalin family that interacts with Met; purified soluble protein (protein, UniProt P0DQD2 31-630, looked up)
Internalin B: AKVQAETITVPTPIKQIFSDDAFAETIKDNLKKKSVTDAVTQNELNSIDQIIANNSDIKSVQGIQYLPNVTKLFLNGNKLTDIKPLANLKNLGWLFLDENKVKDLSSLKDLKKLKSLSLEHNGISDINGLVHLPQLESLYLGNNKITDITVLSRLTKLDTLSLEDNQISDIVPLAGLTKLQNLYLSKNHISDLRALAGLKNLDVLELFSQECLNKPINHQSNLVVPNTVKNTDGSLVTPEIISDDGDYEKPNVKWHLPEFTNEVSFIFYQPVTIGKAKARFHGRVTQPLKEVYTVSYDVDGTVIKTKVEAGTRITAPKPPTKQGYVFKGWYTEKNGGHEWNFNTDYMSGNDFTLYAVFKAETTEKAVNLTRYVKYIRGNAGIYKLPREDNSLKQGTLASHRCKALTVDREARNGGKLWYRLKNIGWTKAENLSLDRYDKMEYDKGVTAYARVRNASGNSVWTKPYNTAGAKHVNKLSVYQGKNMRILREAKTPITTWYQFSIGGKVIGWVDTRALNTFYKQSMEKPTRLTRYVSANKAGESYYKVPVADNPVKRGTLAKYKNQKLIVDCQATIEGQLWYRIRTSSTFIGWTKAANLRAQK
Met [1]; In1B 5 nM
  time of maximal In1B-induced ubiquitination of Met: two
  time of new wave of Met ubiquitination after addition of In1B: 30 min
Met [1]; In1B 5 nM, anti-Met blot of immunoprecipitates
  time at which a new band corresponding to Met appeared after addition of In1B: 15 min
Met [1]; In1B two minutes, re-immunoprecipitated anti-Met, blot anti-ubiquitin
  ubiquitination of Met after In1B treatment (re-immunoprecipitation assay): induces the ubiquitination of Met
Met [1]; increasing amount of In1B for two minutes
  minimal amount of In1B necessary to trigger Met ubiquitination: 1.75 nM
Met [1]; two minutes, 3.5 to 80 nM In1B (FIG. 1D)
  Met ubiquitination using higher amount of In1B: did not significantly increase
Met [2]
  time of maximum of Met phosphorylation and ubiquitination after stimulation: two
